The values below come from PMC11098500.

As a reminder, the Kd is the free concentration of one partner at which half of the binding sites on the other are occupied at equilibrium, for simple one-to-one binding. A higher Kd goes with lower affinity.

The target in test [1] is domestic dog ACE2 ectodomain (residues 1-614), Fc-tagged (domestic dog). Description: SPR.
The target of test [2] is raccoon dog ACE2 ectodomain (residues 1-614), Fc-tagged (raccoon dog) (UniProt B4XEP4). As to the kind of experiment: SPR. A general note: Surface plasmon resonance follows binding to a sensor surface in real time, without labels.

Where “and” joins values, the source holds several entries; their conditions need not be identical. Identical values can stand only once.

In turn, “SARS-CoV-2 RBD (residues 319-529), His-tagged (from UniProt P0DTC2 319-529) (domain or fragment)” had a dissociation constant Kd in test [1] of 468 nM. Consider “SARS-CoV-2 RBD (prototypic strain, residues 319-529), His-tagged (from UniProt P0DTC2 319-529) (domain or fragment)”, for which the Kd is 297 nM and 449 nM and 450 nM in test [2]; 518 nM and 524 nM and 361 nM in test [1].
